Measurements taken from patent WO2022154037A1 (dated 2022).

Columns and labels:
[1] = molecular target: T1, antigen peptide in which Ser510 is not phosphorylated (non-phosphorylated LRH1 peptide) (human); assay: ELISA, concentration series of peptide, purified antibody
T1 construct: also called non-pS510-LRH1 peptide; peptide containing a non-phosphorylated product of serine at position 510
T1 peptide: RLPEIRAISMQAEE

[2] = molecular target: T2, mutant LRH1 (LRH1S510E; constitutive phosphorylated product) (human, UniProt O00482 1-541); assay: immunohistochemical staining of HEK293T cell block sections expressing LRH1S510E
T2 construct: It is a nuclear protein, not on the cell surface; also called HEK293T:LRH1S510E
T2 sequence (O00482 whole entry S510E): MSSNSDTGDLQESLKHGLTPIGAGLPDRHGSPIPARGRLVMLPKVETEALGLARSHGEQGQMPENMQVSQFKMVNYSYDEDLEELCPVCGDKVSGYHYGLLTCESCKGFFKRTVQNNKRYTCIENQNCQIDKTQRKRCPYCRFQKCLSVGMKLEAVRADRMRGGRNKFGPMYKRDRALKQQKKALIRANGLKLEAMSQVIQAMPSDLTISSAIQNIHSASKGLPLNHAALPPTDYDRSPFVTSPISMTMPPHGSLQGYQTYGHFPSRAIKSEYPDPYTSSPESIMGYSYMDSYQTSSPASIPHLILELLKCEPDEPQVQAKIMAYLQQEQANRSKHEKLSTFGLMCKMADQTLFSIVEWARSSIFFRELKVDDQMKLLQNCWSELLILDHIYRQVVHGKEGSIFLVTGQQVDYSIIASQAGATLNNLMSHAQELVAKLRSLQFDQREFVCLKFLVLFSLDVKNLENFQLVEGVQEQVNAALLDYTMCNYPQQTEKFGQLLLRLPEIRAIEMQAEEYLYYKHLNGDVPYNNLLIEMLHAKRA

B1: anti-pSer510-LRH1 monoclonal antibody clone 55 (FMU-P2-C2) (antibody, V domains shown)
VH: EVKLVESGGGLVQPGGSLRLSCAASGFTFADFYMSWIRQSPGKAPEWLSFIRNKAKSYTTEYNPSVKGRFTISRDDTQNVLYLQMNTLRAEDTAIYYCAKHERGGAGDYWGQGVMVTVSL
VL: DIQMTQSPASLSASPEEIVTITCQASQDIGNWLTWYQQKPGKSPQLLIYSATSLADGIPSRFSGSRSGTQYSLKISRLQVEDTGIYYCLQRYSNPLTFGSGTKLEIK
notes: Rat monoclonal antibody from a hybridoma (Wistar rat iliac lymph node cells fused with mouse myeloma SP2), detected with anti-rat IgG secondary antibodies; also called rat anti-pSer510-LRH1 monoclonal antibody clone 55; purified anti-pSer510-LRH1 monoclonal antibody
B1: no binding [1]; binds [2].
